Results on 16 sequences are retold here after the supplement of paper PMC9170038.

The subject of the data set is MS2 coat protein. The experiment in a line: apparent KD of MS2 coat protein; higher = weaker reporter binding. The following applies: Eterna round: R107. The essentials: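 Each design's apparent KD comes from the median of binding-curve fits to its normalised clusters. Those clusters carried RNA switches transcribed on-chip from Illumina sequencing clusters. SNAP-549-labelled MS2 coat protein was titrated onto them in twofold steps (0.7 or 1.5 nM to 3 µM; per step 0.8–1.5 h down to 10–20 min). Conditions were 100 mM Tris-HCl pH 7.5, 80 mM KCl, 4 mM MgCl2, without or with constant ligand.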

The mark [1] stands for this setting: input ligand: theophylline 20 uM.
The mark [2] stands for this setting: input ligand: theophylline 2 mM.
Where [3] appears, read: input ligand: tryptophan 2.4 mM.

As to “UGUAUGGACUGAAGGAGCGACUCAAAAUAACAUGAGGAUCACCCAUGUAAGGCGAAAGCCGGUCAGGUAGGUCGCAGUCCAUACU [ArgBX 3]”, the “apparent KD of MS2 coat protein” value reads like this: (input ligand: arginine 13.2 mM) 13.7 nM; (input ligand: none) 11.3 nM; under setting [1], 16.1 nM; under setting [2], 10.6 nM; under setting [3], 11.6 nM.
Consider “GGAUUCGGCACGGCCGCCACUGCGGUGGUGUGACAUGAGGAUCACCCAUGUUGUCAUGCGGCCCUUAGGACCGGGUGGCGUUUCC [#1 Exclusion - Tryptophan B Attempt #21 (HarryS)]”, for which the “apparent KD of MS2 coat protein” value by setting is: (input ligand: arginine 13.2 mM) 47.1 nM; under setting [1], 76.2 nM; under setting [2], 73.3 nM.
For “AUGUAGAACCGAAGGAGCGCGAUAACAUGAGGAUCACCCAUGUAGUUUUGGUGGCUUCGAUCGCAGGUAGGUCGCGGAAGUAGUA [#03 Exclusion - Arginine B]”, the “apparent KD of MS2 coat protein” value (input ligand: arginine 13.2 mM) was 37.9 nM; the “apparent KD of MS2 coat protein” value (input ligand: none) stood at 35.9 nM; the “apparent KD of MS2 coat protein” value under setting [1] stood at 97.6 nM; the “apparent KD of MS2 coat protein” value under setting [2] was determined as 77 nM; the “apparent KD of MS2 coat protein” value under setting [3] stood at 55.4 nM.
Turning to “GUUUAGAGCUCGGCCGCCACUCAAACAUGAGGAUCACCCAUGUAAAACAUGAGGAUCACCCAUGUGAGGACCGGGAGAAAUAAGA [Exclusion Tryptophan B GF7]”, the “apparent KD of MS2 coat protein” value is 242 nM (input ligand: arginine 13.2 mM); 337 nM (input ligand: none); 370 nM under setting [1]; 435 nM under setting [2]; 420 nM under setting [3].
Turning to “CGAAUAUAGACGGCCGCCACUCUACAAACAUGAGGAUCACCCAUGUUCACAUAGUGGAAACACAUGAGGACCGGGUCAUAGGCAU [#18 Same State - Tryptophan B]”, the “apparent KD of MS2 coat protein” value (input ligand: arginine 13.2 mM) was determined as 19.2 nM, the “apparent KD of MS2 coat protein” value under setting [1] amounted to 25.4 nM and the “apparent KD of MS2 coat protein” value under setting [2] is 21.3 nM.
For the sequence “ACAUGAGGAUCACCCAUGUGGCGUCUUGAUACCAGACGAGAAGUAGUCCCUUGGCAGCAAAUACGUGAGGAUCACACAUGUGCGA [cccmullin3]”, the “apparent KD of MS2 coat protein” value (input ligand: arginine 13.2 mM) is 24.4 nM, the “apparent KD of MS2 coat protein” value under setting [1] was determined as 30.9 nM and the “apparent KD of MS2 coat protein” value under setting [3] came out at 29 nM.
Turning to “CCUCCUUGUACGGCCGCCACUGCAUCUCUGGAUACUCCGAUAAUACAUGAGGAUCACCCAUGUUACAGGACCGGGUAUAUAUUAC [theeternabot_sameState_MS2_Trp_B_19]”, the “apparent KD of MS2 coat protein” value came out at 14.7 nM (input ligand: arginine 13.2 mM), 18.7 nM under setting [1] and 15.3 nM under setting [2].
With “GCACAAGAUGGAAGGAGCGCUGGUAAAGGUCACAUGAGGAUCACCCAUGUGCUCCUUGCCGAGCAGGUAGGUCGCCAUCUUGUGC [SSAB NP+V+V2 #3]”, the “apparent KD of MS2 coat protein” value was determined as 14.1 nM (input ligand: arginine 13.2 mM); 11.7 nM (input ligand: none); 16.4 nM under setting [1]; 13.3 nM under setting [2]; 11.7 nM under setting [3].
Take “AGCAGCUCGAAAGAGUUGCACUCAUGUGAAGGAGCGCCCGUUAGGGCAGGUAGGUCGCACAUGAGGAUCACCCAUGUACCUUCUA [ArgAX 20 #OpenEnded #MS2Late]”: the “apparent KD of MS2 coat protein” value is, setting by setting: (input ligand: arginine 13.2 mM) 84.4 nM; (input ligand: none) 174 nM; under setting [1], 182 nM; under setting [2], 273 nM; under setting [3], 188 nM.
Turning to “UAUCGUCAGACGGCCGCCACUAGAACAUGAGGAUCACCCAUGUAAGUGGCCGGUCUCCUCAUGACUAGGACCGGGUCUGACGAAU [(Trp1)-(Ms2)-(T)'-(M)'-(Trp2)_Design18]”, the “apparent KD of MS2 coat protein” value reads like this: (input ligand: arginine 13.2 mM) 9.69 nM; under setting [1], 14.1 nM; under setting [2], 10.9 nM.
Take “AGUCUUGAACGAAGGAGCGACGUACAUGAGGAUCACCCAUGUGGAGCGAAAGCUCCGUAACGUCAGGUAGGUCGCGUUCGAGACA [Omei Arginine B SS A v3]”: the “apparent KD of MS2 coat protein” value is, setting by setting: (input ligand: arginine 13.2 mM) 6.89 nM; (input ligand: none) 9.25 nM; under setting [1], 15.6 nM; under setting [2], 13.1 nM; under setting [3], 12.5 nM.
In the same order, the values of “GGGCUCGGAGUGCGGCGUGUUCCGCUCCGUCGAGGACCGGUACGGCCGCCACUCGACAUGAGGAUCACCCAUGUCCGAGCGCGCG [#1 Exclusion - Tryptophan A Attempt #6 (HarryS)]” are 19.2 nM, 21.2 nM, 41.7 nM, 51.4 nM and 9.64 nM.
For “UUUACAUGAGGAUCACCCAUGUGCCAUGAUACCAGACAUGAAAAUGUCCCUUGGCAGCAUGAGUGAUAUGCGUCGGAAACGACGC [Jundrov]”, the “apparent KD of MS2 coat protein” value is, setting by setting: (input ligand: arginine 13.2 mM) 499 nM; (input ligand: none) 153 nM; under setting [1], 102 nM; under setting [2], 1210 nM; under setting [3], 194 nM.
In the same order, the values of “ACCUGUACGAAAAGUGCAGGACACGGAAUACGAGGACCGGUACGGCCGCCACUCGGAACCUGAGGAUCACCCUGGUAAAACCGUG [TrypAS 13 #AlternativeMS2 #Zipper #StaticStem]” are 19.9 nM, 17.8 nM, 22.6 nM, 24 nM and 19.5 nM.
In the same order, the values of “AAUUCCUAACAUGAGGAUCACCCAUGUGAAGGAGCGCCGAAUAAGGCAGGUAGGUCGCACAUGGAACUGCUACGAAAGUAGAAAA [XArg-A 4 V2mod]” are 19.2 nM, 16.2 nM, 23.3 nM, 35.1 nM and 18.8 nM.
In the same order, the values of “GUCAGUGACUGAAGGAGCGACAUGAGGAUCACCCAUGUCUCCCGUUAUGGGAGUUCCUUAGGUCAGGUAGGUCGCAGUCACUGAC [#1 Exclusion - Arginine B Attempt #29 (Inspired by Omei)]” are 174 nM, 123 nM, 163 nM, 188 nM and 95.7 nM.
